Target: the molecule itself
Assay: SEC; Nesprin-2-SMC released from GST by thrombin, on a Sephadex G-200 gel filtration column; markers ovalbumin 43 kDa, conalbumin 75 kDa, aldolase 158 kDa; fractions also checked by SDS-PAGE

B1: Nesprin-2-SMC (domain or fragment, human, UniProt Q8WXH0 1436-1766, looked up)
chain: NNELLKNIQDVQSQISKIGLKDPTVPAVKHRKKSLIRLDKVLDEYEEEKRHLQEMANSLPHFKDGREKTVNQQCQNTVVLWENTKALVTECLEQCGRVLELLKQYQNFKSILTTLIQKEESVISLQASYMGKENLKKRIAEIEIVKEEFNEHLEVVDKINQVCKNLQFYLNKMKTFEEPPFEKEANIIVDRWLDINEKTEDYYENLGRALALWDKLFNLKNVIDEWTEKALQKMELHQLTEEDRERLKEELQVHEQKTSEFSRRVAEIQFLLQSSEIPLELQVMESSILNKMEHVQKCLTGESNCHALSGSTAELREDLDQAKTQIGMTES
notes: Nesprin-2, human, SMC domain, aa 1436-1766, spectrin repeats 11-13; Calculated molecular weight 38.78 kDa (39 kDa); also called Nesprin-2-SMC domain; SMC polypeptide; source: E. coli XL-1 blue, purified (Glutathione-Sepharose 4B, released from GST by thrombin cleavage); not shown: GST, N-terminal, cleaved
binding result: binds
